Consider one molecule from PMC8228455, “Redox Regulation of the Quorum-sensing Transcription Factor AgrA by Coenzyme A”.

The Kd is the free concentration of one partner at which half of the binding sites on the other are occupied at equilibrium, for simple one-to-one binding.

The data set concerns the target T1, AgrA (6xHis-SaAgrA) (Staphylococcus aureus, UniProt Q5HEG2 1-238).
T1 sequence: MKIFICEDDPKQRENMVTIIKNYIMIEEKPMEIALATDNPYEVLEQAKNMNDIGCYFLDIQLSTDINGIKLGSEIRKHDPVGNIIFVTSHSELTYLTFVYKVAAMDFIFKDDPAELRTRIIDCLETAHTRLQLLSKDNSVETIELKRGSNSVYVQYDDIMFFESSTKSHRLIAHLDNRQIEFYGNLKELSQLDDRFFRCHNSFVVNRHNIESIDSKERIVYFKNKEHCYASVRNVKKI
The data set can be described thus: SPR; non-CoAlated; ka 5.75e3 1/Ms, kd 1.01e-2 1/s; SPR (Biacore 2000, SA chip, ~500 RU DNA): 20 mM HEPES pH 7.6, 250 mM KCl, 10% glycerol; 30 uL/min; temperature not stated; 1:1 Langmuir fit. Particulars: protein: recombinant; tags: 6xHis; chain copies: 2; label: 5' biotin (immobilized on SA chip); blunt. A general note: SPR reads the build-up and loss of mass on a sensor chip optically.

B1: P2 promoter (dsDNA)
DNA 1: TAACAGTTAAGTATTTATTTCCTACAGTTAGGCA
DNA 2: TGCCTAACTGTAGGAAATAAATACTTAACTGTTA
For the molecule B1, the dissociation constant (Kd) amounted to 1750 ± 580 nM.
